Assay results from article PMC9489729 (2022).

Legend:
[1] = molecular target: T1, C-terminally His-tagged RavA (E. coli, UniProt P31473 1-498); test: BLI; + ADP, pH 7.5
[2] = molecular target: T1, C-terminally His-tagged RavA; test: BLI; no nucleotide, pH 7.5
[3] = molecular target: T1, C-terminally His-tagged RavA; test: BLI; + ATP, KD1 (2:1 heterogeneous ligand model), pH 7.5
[4] = molecular target: T1, C-terminally His-tagged RavA; test: BLI; + ATP, KD2 second site (2:1 heterogeneous ligand model), pH 7.5

T1 sequence (P31473 whole entry): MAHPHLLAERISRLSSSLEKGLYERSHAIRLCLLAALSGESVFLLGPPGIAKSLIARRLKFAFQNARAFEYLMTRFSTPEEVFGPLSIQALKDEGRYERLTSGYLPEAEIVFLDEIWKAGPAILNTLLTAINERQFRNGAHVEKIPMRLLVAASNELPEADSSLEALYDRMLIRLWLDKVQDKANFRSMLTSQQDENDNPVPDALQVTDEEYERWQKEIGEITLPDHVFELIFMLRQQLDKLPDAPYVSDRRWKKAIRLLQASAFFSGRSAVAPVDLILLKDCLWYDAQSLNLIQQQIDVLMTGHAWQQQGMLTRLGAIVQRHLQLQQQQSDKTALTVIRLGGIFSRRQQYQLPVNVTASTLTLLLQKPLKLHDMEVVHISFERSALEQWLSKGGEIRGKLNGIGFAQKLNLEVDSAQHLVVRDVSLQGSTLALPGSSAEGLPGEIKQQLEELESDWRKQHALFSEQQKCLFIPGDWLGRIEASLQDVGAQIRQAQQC

Kd [1]: 12.4 µM
Kd [2]: 33.3 µM
Kd [3]: 13.1 µM
Kd [4]: 4.8 µM
B1: His-NTV-AviTag (domain or fragment)
chain: MLTLDTLNVMLAVSEEGLIEEMIIALLASPQLAVFFEKFPRLKAAITDDVPRWREALRSRLKDARVPPELTEEVMCYQQSQLLSTPQFIVQLPQILDLLHRLNSPWAEQARQLVDANSTITSALHTLFLQRWRLSLIVQATTLNQQLLEEEREQLLSEVQERMTLSGQLEPILADNNTAAGRLWDMSAGQLKRGDYQLIVKYGEFLNEQPELKRLAEQLGRSREAKSIPRNDAQMETFRTMVREPATVPEQVDGLQQSDDILRLLPPELATLGITELEYEFYRRLVEKQLLTYRLHGESWREKVIERPVVHKDYDEQPR
modifications: biotinylated for the BLI binding studies (50 μM D-biotin added to the LB medium during expression)
